Test results from publication PMC12459405, “From disorder to icosahedral symmetry: How conformation-switching subunits enable RNA virus assembly” (Science Advances, 2025).

Target: the molecule itself
Assay: cryo-TEM + other: SAXS; in vitro assembly: purified CCMV capsid proteins mixed with in vitro transcribed RNA (C2, 2767 nt, or RF2, 2687 nt) and dialysed overnight against 0.1 M NaCl, 50 mM tris-HCl pH 7.5; SAXS at 25 uM protein, protein-to-RNA mass ratio 4.5; cryo-TEM at 75 uM protein, mass ratio 6.0

B1: cowpea chlorotic mottle virus (CCMV) capsid protein (natural protein)
chain: MSTVGTGKLTRAQRRAAARKNKRNTRVVQPVIVEPIASGQGKAIKAWTGYSVSKWTASCAAAEAKVTSAITISLPNELSSERNKQLKVGRVLLWLGLLPSVSGTVKSCVTETQTTAAASFQVALAVADNSKDVVAAMYPEAFKGITLEQLTADLTIYLYSSAALTEGDVIVHLEVEHVRPTFDDSFTPVY
notes: Free capsid protein stored in 0.5 M NaCl, 50 mM tris-HCl pH 7.5; also called CCMV capsid proteins; CCMV coat proteins; source: purified from CCMV virions from infected cowpea leaves (Vigna unguiculata); virions disassembled by dialysis, capsid proteins recovered by ultracentrifugation
B1: binds.
